Source: patent publication CN111635459A (BEIJING GUANGWEI BIOTECHNOLOGY CO LTD, dated 2020)

Experiments:
U937细胞表面的CD47 = target: T1, U937细胞表面的CD47 (human, UniProt Q08722 19-323); experiment: flow cytometry on U937 cells, blocking of FITC-SIRPα (100 ng/mL) binding to cell-surface CD47; antibody 0.03-50 μg/mL
T1 construct: whole, on cells; also called CD47 on U937 cells

人CD47抗原蛋白 = target: T2, 人CD47抗原蛋白 (human, UniProt Q08722 19-139, limits assumed); experiment: SPR (Biacore 3000), antibody captured by anti-human Fc on CM5 chip, CD47 antigen 200-3.125 nM as analyte
T2 construct: The construct is not described; also called CD47蛋白
T2 sequence (Q08722 19-139 limits assumed): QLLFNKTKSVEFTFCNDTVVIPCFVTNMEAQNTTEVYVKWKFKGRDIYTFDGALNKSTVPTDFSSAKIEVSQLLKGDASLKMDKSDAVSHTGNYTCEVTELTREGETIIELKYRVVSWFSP

T1 sequence (Q08722 19-323): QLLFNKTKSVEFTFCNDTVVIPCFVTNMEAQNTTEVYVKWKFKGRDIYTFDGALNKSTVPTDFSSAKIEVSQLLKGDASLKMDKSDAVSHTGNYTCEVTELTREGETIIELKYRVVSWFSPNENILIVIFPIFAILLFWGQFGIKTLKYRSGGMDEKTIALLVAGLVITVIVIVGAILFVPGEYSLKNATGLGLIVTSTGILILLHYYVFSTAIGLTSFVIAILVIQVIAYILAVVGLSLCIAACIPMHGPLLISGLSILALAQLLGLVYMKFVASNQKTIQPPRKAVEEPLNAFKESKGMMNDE

- IC50 (U937细胞表面的CD47): 1.37 mg/L
- Kd (人CD47抗原蛋白): 0.0934 nM
- koff (人CD47抗原蛋白): 3.84e-05 s⁻¹
- kon (人CD47抗原蛋白): 411000 M⁻¹ s⁻¹
B1: 对照抗体W3452-1.164.16-z11 (antibody, V domains shown)
VH: QVQLQESGPGLVKPSETLSLTCTVSGFSLTNYHVYWIRQPPGKGLEWIGVMWNHGDTSYNSPLKSRVTISVDTSKSQFSLKLSSVTAADTAVYYCARGGYVPDYWGQGTMVTVSS
VL: DIVMTQSPLSLPVTPGEPASISCRSSQSLVHSNAKTYLHWYLQKPGQSPQLLIYRVSNRFSGVPDRFSGSGSGTDFTLKISRVEAEDVGVYYCLQTTHFPYTFGQGTKLEIK
